From patent US20230295308A1, “ANTAGONISTIC BIPARATOPIC ANTIBODIES THAT SPECIFICALLY BIND FIBROBLAST GROWTH FACTOR RECEPTOR 2 AND METHODS OF USING SAME” (The Broad Institute, Inc., priority 2020, published 2023)
Entries after “also recorded” stand apart in the source; their conditions may differ. Each block holds one molecule with its values, some of them ahead of it.

Tests used:
[1] = molecular target: FGFR2 on SNU-16 gastric cancer cell line with FGFR2 amplification (UniProt P21802); assay: row 'Kd (nM) (FACS)'; FACS on SNU-16 cells
[2] = molecular target: FGFR2 on SNU-16 gastric cancer cell line with FGFR2 amplification (UniProt P21802); assay: FACS on SNU-16 cells, % cells with FITC+ [cont.]
[3] = molecular target: FGFR2b alpha IIIb antigen (UniProt P21802); assay: SPR (Biacore), antibody on chip, FGFR2b alpha IIIb antigen
[4] = molecular target: FGFR2 on SNU-16 gastric cancer cell line with FGFR2 amplification (UniProt P21802); assay: FACS on SNU-16 cells, % No. of cells with FITC+ [cont.]
[5] = molecular target: FGFR2b alpha IIIb antigen (UniProt P21802); assay: SPR (Biacore), antibody immobilized, FGFR2b alpha IIIb in flow
[6] = molecular target: FGFR2 on SNU-16 gastric cancer cell line with FGFR2 amplification (UniProt P21802); assay: FACS on SNU-16 cells, % cells with FITC+ against log antibody concentration; Kd printed in the legend box [cont.]
[7] = system: NIH3T3 cells overexpressing FGFR2-BICC1 fusion; assay: NIH3T3 FGFR2-BICC1 cell confluency, Incucyte (FIGS. 19A-19E); type: cell-based; settings: 60 hours, 0.013-1 μM
Description: FIGS. 19A-19E present graphs showing the ability of biparatopic antibodies to impact FGFR2-fusion driven cell growth in NIH3T3 cells molecularly engineered to overexpress FGFR2-BICC1 fusion. […] The nomenclature of the biparatopic antibodies is based on the designations and descriptions of the parental antibodies presented in FIG. 7B.
The impact of biparatopic antibodies on FGFR2-fusion driven cell growth was assessed in a cell-based assay using biparatopic antibodies that bind to the ECD of FGFR2 and generated as described supra (Example 4). As described herein, the biparatopic antibodies were added to cultures of cells (e.g., NIH3T3 cells or BaF3 cells) molecularly engineered to overexpress FGFR2 fusion.
For assays using NIH3T3 cells, (FIGS. 19A-19E), NIH3T3 cells overexpressing a FGFR2-BICC1 fusion construct were plated in 384 black well plates at a concentration of 1000 cells/well overnight. 6 parental antibodies and 13 biparatopic antibodies were added to each well in duplicates at various concentrations ranging from 1 μM to 0.013 μM (1 μM, 0.833 μM, 0.600 μM, 0.450 μM, 0.316 μM, 0.233 μM, 0.166 μM, 0.125 μM, 0.091 μM, 0.066 μM, 0.048 μM, 0.035 μM, 0.025 μM, 0.018 μM, and 0.013 μM). The cell confluency was measured using Incucyte at 60 hours post treatment, and the IC50 curves were generated using non-linear fit in PRISM 9 software.

[8] = molecular target: FGFR2b alpha IIIb antigen (UniProt P21802); assay: SPR (Biacore), KD matrix by the two arms; unit M from FIG. 17B and paragraph 180
[9] = system: FGFR2-PHDGH fusion expressing BaF3 cells; assay: growth of BaF3 cells expressing FGFR2-PHGDH fusion, absence of FGF ligands (FIG. 9); type: cell-based; settings: BaF3 FGFR2-PHGDH fusion
Description: Antibodies A-F were tested to determine whether they could inhibit the ligand-induced growth of BaF3 cells expressing FGFR2IIIb. Antibodies C, D, and E, which bind FGFR2 Ig-2 and Ig-3, were effective in blocking ligand-induced growth of BaF3 cells expressing wild-type FGFR2IIIb (FIG. 8). The effects of antibodies A-F were then tested on BaF3 cells expressing FGFR2-PHDGH fusions. […] Antibody F inhibited the FGFR2-PHDGH activating fusion in BaF3 cells (FIG. 9).

[10] = molecular target: FGFR2b alpha IIIb (Homo sapiens, UniProt P21802); assay: Surface Plasmon Resonance (SPR) binding; settings: FGFR2b alpha IIIb antigen
Text: FIGS. 17A-17C provide a schematic and tabular data related to assessments made to compare the avidity of biparatopic antibodies to that of their parental (bivalent monospecific) antibodies.
Surface Plasmon Resonance (SPR) as known in the art was used to determine the binding affinities of biparatopic antibodies. The SPR-based binding method involves immobilization of a ligand (antibody) on the surface of a sensor chip. The binding partner of interest or an analyte (FGFR2 ECD) flow through the flow channel. Different concentrations of an analyte flow over the ligand, and the interactions of ligand-analyte can be characterized. The SPR signal originates from changes in the refractive index of the […] at the surface of the sensor chip. The increase in mass associated with a binding event causes a proportional increase in the refractive index, which is observed as a change in response-resonance signal. In brief, for the experiments using the antibodies described herein, the SPR assay was carried out by immobilizing antibodies (used as […]) at a concentration ranging from 1-1000 nM and flow-through FGFR2b alpha IIIb antigen (used as […]). The antibody kinetic data for the interaction with FGFR2b alpha IIb antigen were fitted to the 2-state and 1-1 binding models using Biocore software. The mean and standard deviation KD values are derived from at least three independent runs.
Using SPR, the kinetics of 6 monospecific and 13 biparatopic antibodies for binding to a single antigen, FGFR2b alpha IIb, was measured so as to compare avidity of the biparatopic antibodies to their parental antibodies. Without wishing to be bound by theory, it was expected that the biparatopic antibodies would bind to the FGFR2 antigen more tightly than their parental antibodies and that the tighter binding biparatopic antibodies among the antibodies that were assessed would be more efficient in blocking FGFR2 dimerization (FIG. 17A), thereby leading to inhibition or blocking of constitutive FGFR2 signaling and/or oncogenic transformation. […]

[11] = molecular target: T1, 15AA-Nterm FGFR2; assay: row 'Kd (nM) (patent)', value quoted from the source patent; method: Indirect ELISA-15AA-Nterm FGFR2
T1 peptide: RPSFSLVEDTTLEPE

Sequence of FGFR2b alpha IIIb (P21802 22-378 isoform P21802-3): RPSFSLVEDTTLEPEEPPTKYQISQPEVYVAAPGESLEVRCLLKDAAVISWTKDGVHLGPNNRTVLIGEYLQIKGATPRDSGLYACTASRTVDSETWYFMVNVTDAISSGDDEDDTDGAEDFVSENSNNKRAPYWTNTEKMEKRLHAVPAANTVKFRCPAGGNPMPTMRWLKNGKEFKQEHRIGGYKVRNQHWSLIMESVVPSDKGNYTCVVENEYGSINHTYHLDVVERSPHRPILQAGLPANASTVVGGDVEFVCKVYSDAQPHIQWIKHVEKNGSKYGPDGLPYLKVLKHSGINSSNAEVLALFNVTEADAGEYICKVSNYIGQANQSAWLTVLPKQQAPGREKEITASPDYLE

Kd [1]: 0.13 nM
EC50 (read off the curve) [2]: 0.02 mg/L
Kd [3]: 1.7 nM
EC50 (read off the curve) [4]: 0.02 mg/L
Binding Stoichiometry [5]: 1.9
Kd [6]: 0.13 nM
B1: 10164 (antibody, V domains shown)
VH: QVQLVESGGGLVKPGGSLRLSCAASGFTFSSYALSWVRQAPGKGLEWVGRIRSKIDGGTTDYAAPVKGRFTISRDDSKNTLYLQMNSLKTEDTAVYYCARDRSPSDSSAFAIWGQGTLVTVSS
VL: DIELTQPPSVSVSPGQTASITCSGDNLGSQYVDWYQQKPGQAPVLVIYDDNDRPSGIPERFSGSNSGNTATLTISGTQAEDEADYYCQSWDSLSVVFGGGTKLTVLG
notes: the duobody scheme implies IgG1 with K409R or F405L; also called Antibody C; N10164

B2: GE/N10: biparatopic antibody combining parental antibodies GE (Antibody D) and N10 (Antibody C) (antibody, V domains shown)
VH 1: EVQLVESGGGLVQPGGSLRLSCAASGFPFTSTGISWVRQAPGKGLEWVGRTHLGDGSTNYADSVKGRFTISADTSKNTAYLQMNSLRAEDTAVYYCARTYGIYDTYDMYTEYVMDYWGQGTLVTVSS
VL 1: DIQMTQSPSSLSASVGDRVTITCRASQDVDTSLAWYKQKPGKAPKLLIYSASFLYSGVPSRFSGSGSGTDFTLTISSLQPEDFATYYCQQSTGHPQTFGQGTKVEIK
VH 2: B1 VH
VL 2: B1 VL
inhibition of growth of NIH3T3 cells overexpressing FGFR2-BICC1 compared to parental antibodies [7]: more efficient and potent; also recorded: more effective and potent

Binding Stoichiometry [5]: 1.2
Kd [5]: 0.87 nM
Kd [8]: 0.87 nM
B3: FGFR_GA/GE_FL (bispecific antibody, part only; not given: Constant regions with duobody mutation, part only)
heavy chain, GA arm, part: QVQLVQSGAEVKKPGSSVKVSCKASGYIFTTYNVHWVRQAPGQGLEWIGSIYPDNGDTSYNQNFKGRATITADKSTSTAYMELSSLRSEDTAVYYCARGDFAYWGQGTLVTVSS
light chain, GA arm: DIQMTQSPSSLSASVGDRVTITCKASQGVSNDYAWYQQKPGKAPKLLIYSASYRYTGVPSRFSGSGSGTDFTFTISSLQPEDIATYYCQQHSTTPYTFGQGTKLEIK
heavy chain, GE arm, part: B2 VH 1
light chain, GE arm: B2 VL 1

Binding Stoichiometry [5]: 1.3
Kd [5]: 0.42 nM
Kd [8]: 0.42 nM
B4: Biparatopic antibody GE/N12 (bispecific antibody, V domains shown)
VH 1: B2 VH 1
VL 1: B2 VL 1
VH 2: QVQLVQSGAEVKKPGESLKISCKGSGYSFTNYYIHWVRQMPGKGLEWMGAIYPDNSDTTYSPSFQGQVTISADKSISTAYLQWSSLKASDTAMYYCARGADIWGQGTLVTVSS
VL 2: DIQMTQSPSSLSASVGDRVTITCRASQDIDPYLSNWYQQKPGKAPKLLIYDASNLQSGVPSRFSGSGSGTDFTLTISSLQPEDFATYYCQQTTSHPYTFGQGTKVEIK
inhibition of growth of NIH3T3 cells overexpressing FGFR2-BICC1 compared to parental antibodies [7]: more efficient and potent; also recorded: more effective and potent

Kd [10]: 16 nM
Kd [1]: 30.7 nM
EC50 (read off the curve) [2]: 0.1 mg/L
Kd [3]: 16 nM
EC50 (read off the curve) [4]: 4 mg/L
Binding Stoichiometry [5]: 1.7
Kd [11]: 105 nM
Kd [6]: 30.7 nM
B5: M048-D01 (antibody, V domains shown)
VH: EVQLLESGGGLVQPGGSLRLSCAASGFTFSSYAMSWVRQAPGKGLEWVSAISGSGTSTYYADSVKGRFTISRDNSKNTLYLQMNSLRAEDTAVYYCARVRYNWNHGDWFDPWGQGTLVTVSS
VL: QSVLTQPPSASGTPGQRVTISCSGSSSNIGNNYVSWYQQLPGTAPKLLIYENYNRPAGVPDRFSGSKSGTSASLAISGLRSEDEADYYCSSWDDSLNYWVFGGGTKLTVLG
notes: Parental bivalent monospecific antibody; also called Antibody A; Bayer
agonist activity in the absence of FGF ligands [9]: agonist activity

Binding Stoichiometry [5]: 1.3
Kd [5]: 0.37 nM
Kd [8]: 0.37 nM
B6: Biparatopic antibody B/GE (bispecific antibody, V domains shown)
VH 1: B5 VH
VL 1: B5 VL
VH 2: B2 VH 1
VL 2: B2 VL 1
inhibition of growth of NIH3T3 cells overexpressing FGFR2-BICC1 compared to parental antibodies [7]: more efficient and potent; also recorded: more effective and potent
